Sequences and labels used below:
B1: Chryseobacterium sp-62563 propeptide P69G (protein)
chain: NQDPNLVAKESNETAMKDFGKTVPVGIEKEDGKFKISFMVTAQPYEIKDSKENAAYISMIKTAVENETGIHVFLKANTNEIAKVDKATDDDIRYFKSVFTKEVKEENRK
B2: Chryseobacterium sp-62563 propeptide S97R (protein)
chain: B1 chain with G69P, S97R
B3: Chryseobacterium sp-62563 propeptide V98A (protein)
chain: B1 chain with G69P, V98A
B4: Chryseobacterium sp-62563 propeptide V98H (protein)
chain: B1 chain with G69P, V98H
B5: Chryseobacterium sp-62563 propeptide V98Q (protein)
chain: B1 chain with G69P, V98Q
B6: Chryseobacterium sp-62563 propeptide V98S (protein)
chain: B1 chain with G69P, V98S
B7: Chryseobacterium sp-62563 propeptide P69Q (protein)
chain: B1 chain with G69Q
B8: Chryseobacterium sp-62563 propeptide P69M (protein)
chain: B1 chain with G69M
B9: Chryseobacterium sp-62563 propeptide P69L (protein)
chain: B1 chain with G69L
B10: Chryseobacterium sp-62563 propeptide V98K (protein)
chain: B1 chain with G69P, V98K
B11: Chryseobacterium sp-62563 propeptide V98E (protein)
chain: B1 chain with G69P, V98E
B12: Chryseobacterium sp-62563 propeptide V98N (protein)
chain: B1 chain with G69P, V98N
B13: Chryseobacterium sp-62563 propeptide V98M (protein)
chain: B1 chain with G69P, V98M
B14: Chryseobacterium sp-62563 propeptide V98T (protein)
chain: B1 chain with G69P, V98T
B15: Chryseobacterium sp-62563 propeptide V98C (protein)
chain: B1 chain with G69P, V98C
B16: Chryseobacterium sp-62563 propeptide K96W (protein)
chain: B1 chain with G69P, K96W
B17: Chryseobacterium sp-62563 propeptide V98G (protein)
chain: B1 chain with G69P, V98G
B18: Chryseobacterium sp-62563 propeptide V98R (protein)
chain: B1 chain with G69P, V98R
B19: Chryseobacterium sp-62563 propeptide K96Y (protein)
chain: B1 chain with G69P, K96Y

Substitutions are numbered along the chain they refer to. Names may count otherwise.

This assay concerns the target T1, Chryseobacterium sp-62563 deamidase polypeptide (second polypeptide, deamidase domain), wildtype (Chryseobacterium sp-62563).
T1 sequence: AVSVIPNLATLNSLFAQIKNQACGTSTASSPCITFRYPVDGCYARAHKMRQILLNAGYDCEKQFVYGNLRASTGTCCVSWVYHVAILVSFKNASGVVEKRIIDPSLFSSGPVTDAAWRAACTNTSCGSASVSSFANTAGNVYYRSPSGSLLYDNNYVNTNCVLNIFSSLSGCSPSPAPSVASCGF
The assay can be described thus: cell-based or functional assay.
The molecule B1 had a NanoDSF thermal unfolding temperature of 77 ° C and a Relative activity of maturated deamidase (% initial rate) of 35.
Turning to B2, the Relative activity of maturated deamidase (% initial rate) was found to be 30.
Consider B3, for which the Relative activity of maturated deamidase (% initial rate) turned out to be 68.
On the same count and under the same terms, with B4 the figure was 54; with B5, more than 100; with B6, 98.
In the case of B7, the NanoDSF thermal unfolding temperature stood at 74.1 ° C and the Relative activity of maturated deamidase (% initial rate) is more than 100.
Regarding B8, the NanoDSF thermal unfolding temperature worked out at 79.1 ° C and the Relative activity of maturated deamidase (% initial rate) came to 67.
The molecule B9 displayed a NanoDSF thermal unfolding temperature of 81.5 ° C and a Relative activity of maturated deamidase (% initial rate) of 43.
In the case of B10, the Relative activity of maturated deamidase (% initial rate) was more than 100.
B11: the Relative activity of maturated deamidase (% initial rate) was more than 100.
B12 registered a Relative activity of maturated deamidase (% initial rate) of more than 100.
In the case of B13, the Relative activity of maturated deamidase (% initial rate) amounted to 41.
On the same count and under the same terms, with B14 the figure was 70.
Consider B15, for which the Relative activity of maturated deamidase (% initial rate) stood at 65.
As to B16, the Relative activity of maturated deamidase (% initial rate) came to 51.
B17 gave a Relative activity of maturated deamidase (% initial rate) of more than 100.
For the molecule B18, the Relative activity of maturated deamidase (% initial rate) was more than 100.
B19: the Relative activity of maturated deamidase (% initial rate) was 73.
